Measurements from patent publication US11555213B2, “Nucleic acid encoding a modified homoserine dehydrogenase” (CJ CHEILJEDANG CORPORATION, priority 2018, dated 2023).

System: homoserine dehydrogenase (Hom)
Assay: Measurement of activity of homoserine dehydrogenase in crude extracts, desensitization by L-threonine
Format: biochemical, Corynebacterium glutamicum
Details: 10 mM L-threonine, unlike the wild-type Hom
Procedure: The activity of the enzyme Hom was measured in the prepared strains. The wild-type strain ATCC13032 in a control group and CTR-T285I, CTR-R398Q, CTR-G378W, and CTR-G378S prepared in Example 4 were inoculated into 25 mL of the seed medium, and then cultured until reaching the late log phase. The cells were recovered by centrifugation, washed twice with a 0.1 M potassium phosphate buffer (pH 7.6), and finally suspended in 2 mL of the same buffer containing glycerol at a concentration of 30%. The cell suspension was physically disrupted by a conventional glass bead vortexing method for 10 minutes, and then the supernatant was recovered through two centrifugations (13,000 rpm, 4° C., 30 minutes) and used as a crude extract for measuring the activity of the enzyme Hom. For the measurement of the activity of Hom, a coenzyme solution (0.1 mL) was added to a reaction solution for measuring the enzyme activity (a potassium phosphate (pH 7.0) buffer, 25 mM NADPH, 5 mM aspartate semi-aldehyde), and then reacted at 30° C. The Hom activity U was defined as the number of NADPH μmol consumed per minute according to the presence of L-threonine (0 mM, 10 mM), and the results of the enzyme activity are shown in Table 2 below.

| Molecule | inhibition of Hom activity by L-threonine (desensitization) |
| --- | --- |
| T285I: Hom (SEQ ID NO: 10), threonine at position 285 mutated to isoleucine (protein, Hom (KFCC10881-1)) MTSASAPSFNPGKGPGSAVGIALLGFGTVGTEVMRLMTEYGDELAHRIGGPLEVRGIAVSDISKPREGVAPELLTEDAFALIEREDVDIVVEVIGGIEYPREVVLAALKAGKSVVTANKALVAAHSAELADAAEAANVDLYFEAAVAGAIPVVGPLRRSLAGDQIQSVMGIVNGTTNFILDAMDSTGADYADSLAEATRLGYAEADPTADVEGHDAASKAAILASIAFHTRVTADDVYCEGISNISAADIEAAQQAGHTIKLLAICEKFTNKEGKSAISARVHPILLPVSHPLASVNKSFNAIFVEAEAAGRLMFYGNGAGGAPTASAVLGDVVGAARNKVHGGRAPGESTYANLPIADFGETTTRYHLDMDVEDRVGVLAELASLFSEQGISLRTIRQEERDDDARLIVVTHSALESDLSRTVELLKAKPVVKAINSVIRLERD | inhibition of the activity was reduced |
| G378W: Hom (SEQ ID NO: 12), glycine at position 378 mutated to tryptophan (protein, Hom (KFCC10881-19)) MTSASAPSFNPGKGPGSAVGIALLGFGTVGTEVMRLMTEYGDELAHRIGGPLEVRGIAVSDISKPREGVAPELLTEDAFALIEREDVDIVVEVIGGIEYPREVVLAALKAGKSVVTANKALVAAHSAELADAAEAANVDLYFEAAVAGAIPVVGPLRRSLAGDQIQSVMGIVNGTTNFILDAMDSTGADYADSLAEATRLGYAEADPTADVEGHDAASKAAILASIAFHTRVTADDVYCEGISNISAADIEAAQQAGHTIKLLAICEKFTNKEGKSAISARVHPTLLPVSHPLASVNKSFNAIFVEAEAAGRLMFYGNGAGGAPTASAVLGDVVGAARNKVHGGRAPGESTYANLPIADFGETTTRYHLDMDVEDRVWVLAELASLFSEQGISLRTIRQEERDDDARLIVVTHSALESDLSRTVELLKAKPVVKAINSVIRLERD | inhibition of the activity was reduced |
| R398Q: Hom (SEQ ID NO: 11), arginine at position 398 mutated to glutamine (protein, Hom (KFCC10881-14)) MTSASAPSFNPGKGPGSAVGIALLGFGTVGTEVMRLMTEYGDELAHRIGGPLEVRGIAVSDISKPREGVAPELLTEDAFALIEREDVDIVVEVIGGIEYPREVVLAALKAGKSVVTANKALVAAHSAELADAAEAANVDLYFEAAVAGAIPVVGPLRRSLAGDQIQSVMGIVNGTTNFILDAMDSTGADYADSLAEATRLGYAEADPTADVEGHDAASKAAILASIAFHTRVTADDVYCEGISNISAADIEAAQQAGHTIKLLAICEKFTNKEGKSAISARVHPTLLPVSHPLASVNKSFNAIFVEAEAAGRLMFYGNGAGGAPTASAVLGDVVGAARNKVHGGRAPGESTYANLPIADFGETTTRYHLDMDVEDRVGVLAELASLFSEQGISLRTIQQEERDDDARLIVVTHSALESDLSRTVELLKAKPVVKAINSVIRLERD | inhibition of the activity was reduced |
| G378S: Hom (SEQ ID NO: 13), glycine at position 378 mutated to serine (protein, Hom (KFCC10881-22)) MTSASAPSFNPGKGPGSAVGIALLGFGTVGTEVMRLMTEYGDELAHRIGGPLEVRGIAVSDISKPREGVAPELLTEDAFALIEREDVDIVVEVIGGIEYPREVVLAALKAGKSVVTANKALVAAHSAELADAAEAANVDLYFEAAVAGAIPVVGPLRRSLAGDQIQSVMGIVNGTTNFILDAMDSTGADYADSLAEATRLGYAEADPTADVEGHDAASKAAILASIAFHTRVTADDVYCEGISNISAADIEAAQQAGHTIKLLAICEKFTNKEGKSAISARVHPTLLPVSHPLASVNKSFNAIFVEAEAAGRLMFYGNGAGGAPTASAVLGDVVGAARNKVHGGRAPGESTYANLPIADFGETTTRYHLDMDVEDRVSVLAELASLFSEQGISLRTIRQEERDDDARLIVVTHSALESDLSRTVELLKAKPVVKAINSVIRLERD | inhibition of the activity was reduced |
